Reference: the supplement of paper PMC12764529
± gives the half width of the 95% confidence interval.

Tests used:
[1] = folding stability dG unfold from trypsin proteolysis; higher = more stable
In short: (§1)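 Bayesian fitting of sequencing counts gave K50 for each design. Unfolding free energy followed by setting this against a sequence-predicted unfolded-state K50 and a shared folded-state K50, either per protease or with trypsin and chymotrypsin combined. The designs, under 80 residues and lacking cysteine, were digested in a PA-tagged cDNA display format at 11 threefold-diluted protease concentrations and without protease, and only those with AlphaFold2 dimer inter-PAE above 15 were kept.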

[2] = folding stability dG unfold from chymotrypsin proteolysis; higher = more stable
In short: as §1

[3] = folding stability dG unfold (combined trypsin and chymotrypsin); higher = more stable
In short: as §1

Sequence	folding stability dG unfold [1] [kcal/mol]	folding stability dG unfold [2] [kcal/mol]	folding stability dG unfold [3] [kcal/mol]
SAETVVIPIEAPEDEILAAIKALIDANPDVKITITYADGEKKEITLPDGTKITIERLPDGTLLITVEKVSAG [r14_807_TrROS_Hall]	3.19 ± 0.23	1.74 ± 0.066	2.49 ± 0.17
SAGGSAGGSAGGSMPIPYKIDSIEYYPPYPYYTLNVTGPENKPYTIIMSPENLENATIESAGGSAGGSAGGS [r4_51_TrMRF]	1.43 ± 0.12	0.607 ± 0.19	1.05 ± 0.23
SAGGSAGGSAGGKGKKVTIEIHFFFKSPQEMKHWANTLAKELPGLDVEIKVEWIPLEDMKSAGGSAGGSAGG [r7_465_TrROS]	2.06 ± 0.14	3.26 ± 0.14	2.75 ± 0.29
SAGGSAGGSAGMVNTTLTTAPDGTRIVTTTFPENPDLVLRTTYAPDGSVLETELVPSSQLSAGGSAGGSAGG [r11_909_JUSTAS]	1.98 ± 0.045	1.04 ± 0.023	1.52 ± 0.026
SAGGSAGGSAGGMFKTYDSLEDVKKNETGDGAKGKVFVVAPIPELENAVLVLVEIRPPDSAGGSAGGSAGGS [r10_126_TrMRF]	-0.219 ± 0.069	0.504 ± 0.11	0.231 ± 0.088
SAGGSAGGSAGGKKTLKLPVKITPVKDGLLITLPDGTPILVPKNVTVETTDTTAYVTIGSAGGSAGGSAGGS [r10_305_TrMRF]	0.21 ± 0.067	-0.375 ± 0.28	0.0124 ± 0.2
SADALKKILSNIHSVEFDPKWGWVTIHFPNKSKIKKALKEGFPRVEMQEDPDGHMMIRIRVPKLPPGQPSAG [r14_115_TrROS]	1.82 ± 0.057	2.65 ± 0.043	2.35 ± 0.2
SAGGSAMKEITIEVDGKTVRVKVYFKDTGKVVERTFPKGTSVEELAKELEEEFGKDVEIVEVEEVPSAGGSA [r15_544_TrROS_Hall]	2.43 ± 0.11	3.57 ± 0.11	3.24 ± 0.15
SAGGSSELEEAIEKARAEPGVLVERTVKLPDGRELKVEVDPKTGIVTLTETLPDGSTTTKEETYEPSAGGSA [r2_263_JUSTAS]	0.512 ± 0.088	1.26 ± 0.085	1.11 ± 0.13
SAGGSAGGSALELIKEIAEEHNIPVDIEPTGNKIRVEIEMPNPDGQPVKHTIEIPIPPDENQSAGGSAGGSA [r18_27_TrROS]	0.389 ± 0.11	1.08 ± 0.078	0.975 ± 0.2
SAGGSAGGEKKGKPPVKIVIKVRDVDTGETRTITLTIEPDMTVEEIRELLRALLPPGAEVEIVPSAGGSAGG [r6_440_TrROS_Hall]	1.6 ± 0.052	3.45 ± 0.15	3.08 ± 0.16
SAGGSAPPNIVRPYVRPFLIYNPNGEPAALGELVIFEAPEGRLILLRLRSLENGEELELPFLYPGESAGGSA [r15_819_TrMRF]	2.71 ± 0.071	3.453 ± 0.02	3.25 ± 0.037
SDDKNMKPVKFKVEIEEERIEENGKKYIKIEVTWPGGNTVKIWFDPDKLIITFPVRSVEDVLEEVKDLIKSA [r9_662_TrROS]	2.19 ± 0.064	3.52 ± 0.039	3.06 ± 0.085
SAGGSAGGSAEKKKVTIRIVVKPEDVEEILKAIEELLPPGAKATIKVFDKNGELIAEFEFEVSAGGSAGGSA [r18_188_TrROS_Hall]	2.5 ± 0.17	3.09 ± 0.25	2.86 ± 0.12
KKKKPPKVVKVEIKFDKKTKKITVKVDGKTFTITLPDGKKIEITVPAGMSEEEIKALAKKLAKELEEKLKKS [r1_25_TrROS_Hall]	3.73 ± 0.12	1.97 ± 0.2	2.18 ± 0.55
SAGGEKEEIIKKLSKYPKNYRVLLKSPDGTLYEYSSPEEVIKMPLTLPNGKEVIIVKISPEKSPKLLSAGGS [r16_680_JUSTAS]	0.438 ± 0.091	0.836 ± 0.098	0.758 ± 0.099
SAGMKEGEVEKVEVEVEITIEVYNENGEKVKTFKAKVKVEVVRNENGELYVKAEIEFEDGTKFEFVVKLSAG [r5_580_TrROS_Hall]	2.96 ± 0.35	3.71 ± 0.09	3.81 ± 0.54
SAGGKPKVYEFEITIEFKTKTKKDKNGKTYKVKKIKIKIKVKVVVDEENKKIYIFDENGKLIAEFELSAGGS [r16_92_TrROS_Hall]	3 ± 0.22	4.01 ± 0.13	3.72 ± 0.26
SAGGSAGGSAGPPDIEVNYYRYEGYYRVNISFPNNRPIEIMMKGPGMPAEDFVKKLLDQLSAGGSAGGSAGG [r11_313_TrROS]	1.84 ± 0.1	2.35 ± 0.059	2.1 ± 0.14
SAGGSAGGSKEKTYVIKVTITNENGEEFTLELTVTMTEEEAEELAKKLKELYPNAKVTIEKLPSAGGSAGGS [r12_268_TrROS_Hall]	4.16 ± 0.21	4.09 ± 0.12	4.13 ± 0.16
SGQHKVTVPIEIRIYPPDPDGKWKPIGEIPIPVTYEYPKDQPEKAERQAREQVIDEIKKFAKKNGYRIYISA [r9_356_TrROS]	0.452 ± 0.15	0.287 ± 0.36	0.361 ± 0.2

Sequence	folding stability dG unfold [1] [kcal/mol]	folding stability dG unfold [2] [kcal/mol]	folding stability dG unfold [3] [kcal/mol]
SAGGSAGGLEDVIRALGLELLEREKIGEKIRILARDPNADRLYEVTVTLEGPPEIEITPLPPGLSAGGSAGG [r6_195_JUSTAS]	2.79 ± 0.052	3.225 ± 0.022	3.04 ± 0.037
SAGGSAGGSAGLFPGPENIPKVSITPFEVENPLDDYTVTLYRVDFPDLGLSLPAALVSKRSAGGSAGGSAGG [r17_31_TrMRF]	0.698 ± 0.15	1.6 ± 0.07	1.36 ± 0.16
SAGGSAGGGKVLLEIYVPSEVPSVEELVEKLESEGFEVVKVESVPEGDYVRILVEKDVPPESIESAGGSAGG [r6_601_TrMRF]	1.28 ± 0.066	1.71 ± 0.15	1.57 ± 0.11
SAGGSLKIRTVLRLPSPDGTPYLVFSKEAVIHPVPNIVHINLLVPDKEITLTVPLNEVELLGSPEEVLSSAG [r5_15_TrMRF]	2.13 ± 0.048	2.81 ± 0.029	2.65 ± 0.097
SAGGSAGGSMEIVVPVKNPEELKAVAEELEKKGYKVEKLPDGSLKVEKPGSVIYIKGDPVPPLSAGGSAGGS [r12_204_JUSTAS]	1.52 ± 0.074	1.49 ± 0.06	1.45 ± 0.14
SADLKIDDVTVQHYNDYLYVSAEITFPNGWEITVHWMIDPNGKIIDMMIEIRPPPPPVDEEDQEKAQKKSAG [r14_171_TrROS]	2.47 ± 0.22	3.35 ± 0.14	3.05 ± 0.25
SAGGSAGGSAGEPVEIEIKIKVEVNGKTYEITAKLEVYKNEDGSYEVKLYAPPEAITEVESAGGSAGGSAGG [r11_816_TrROS_Hall]	2.47 ± 0.21	2.99 ± 0.09	2.7 ± 0.24
SAGGSMVLLSEETIGDIKIKTYKDPNGGVITVIEKPGERTIEFIYPDGILTIEFPPDGTKKYSFDPIGSAGG [r13_246_JUSTAS]	2.01 ± 0.049	2.32 ± 0.071	2.29 ± 0.1
SAGGSAENKTIKITFTFKNAKNAIFTINVEKGNKTYKITFNLSDNQELNIEVDYNNTKVSFSIYPASAGGSA [r15_414_TrMRF]	3.94 ± 0.48	5.35 ± 0.21	4.74 ± 0.43
SAGGSAGGSAGVIDKENDRWYITQETPGGEPKTIPIPWDDIPDLPPENVKEVELMPPDDISAGGSAGGSAGG [r11_779_TrROS]	-0.179 ± 0.031	-0.00556 ± 0.056	-0.0024 ± 0.1
SAGGMVLFRIRFRTGPDGIVRLDPELLEQAEGADIDEDDPRVALILAEPEFLEKLSPELLEEAEILPSAGGS [r16_328_TrMRF]	0.607 ± 0.1	0.606 ± 0.12	0.684 ± 0.047
SAGGSAGGSAKVEPVGVDPKNLVVVYRFENFTVAVTYDPESGKVTVRITDPDGNVLEFELSSAGGSAGGSAG [r3_25_TrMRF]	2.24 ± 0.077	4.112 ± 0.041	3.71 ± 0.086
SAGGSAGGSAGKHTFNIKDIEIKEVVPSNNYYVVRIEMTFPDGKEHKFTFYFPPGDPITLSAGGSAGGSAGG [r11_211_TrROS]	1.97 ± 0.055	2.87 ± 0.085	2.53 ± 0.14
SAMPIDITVEGVERPPDSVVVHLRLDPSVPSDLAVTVKVRGADGTVLEVPAEDRTATLRVPSSDVVVDLSAG [r14_350_JUSTAS]	0.387 ± 0.11	0.912 ± 0.24	0.78 ± 0.16
SVSSKISKVVSETVEDDKRTVTIEVNVPSPVVEIYDSSGKVIKTVPLGKKTTITVTTDPKGTSVSVKVLNSA [r9_917_JUSTAS]	0.46 ± 0.12	0.967 ± 0.044	0.697 ± 0.11
SAGGSAGGSAGGMIVLKDPDPARLEARAEELRAELEAAGRELPPDVEIEVLEAEPDPALLSAGGSAGGSAGG [r7_965_JUSTAS]	-0.194 ± 0.21	-0.568 ± 0.37	-0.279 ± 0.29
SAGGSAGGSPPVKYRITIEMKDPNGKEHTHTIEIPGMNPDDAKEFLEDIPIPPGIKDVEIEPYSAGGSAGGS [r12_886_TrROS]	-0.0813 ± 0.068	-0.55 ± 0.68	-0.148 ± 0.24
SMEDMSVEELLELLREKLREAREKGKSLEDIKITIVIVAETEEEKEAIAKALKEEFPEIKEIKIEVLPPESA [r9_341_TrROS_Hall]	3.06 ± 0.14	2.64 ± 0.15	2.92 ± 0.26
SAGLEVEIVSVEYDEETNTVKVKVKVRNPETNEVTTLELTIKLPPPPPPVEKVEVKEVKDGKVTVTYEESAG [r5_150_TrROS_Hall]	1.43 ± 0.18	0.394 ± 0.13	1.28 ± 0.48
SAGGSAGGSAGGKPYIITLPNMKREVVFENSALVEFEDGSVIAAFENNVIVFFPVPEDALSAGGSAGGSAGG [r7_29_TrMRF]	0.121 ± 0.042	0.786 ± 0.093	0.578 ± 0.12
SAGGSAGGSAGGKTYTAEELRKKLPPGAVIRLKNGKKYEIKEGDKIKKGDKIEIVPKKDLSAGGSAGGSAGG [r7_507_TrROS_Hall]	-0.344 ± 0.32	0.369 ± 0.14	0.18 ± 0.13
